This note sets out measurements from patent publication US20060121462A1, “Receptor and screening methods” (priority 2003, published 2006).

Assay [1] concerns the target human C5L2 (human) (UniProt Q9P296). As to the kind of experiment: flow cytometry, binding/uptake of FLUOS-ASP on HEK 293 cells transiently transfected with C5L2, 30 min at 37 C. (In general: A flow cytometer gives signals particle by particle.)
For assay [2] the target is unchanged. As to the kind of experiment: competition with 50 pM 125I-C3a on C5L2-transfected RBL cells, 4 C.
Assay [3] has the same target. As to the kind of experiment: competition with 50 pM 125I-C5a on C5L2-transfected RBL cells, 4 C.

human C5L2 (human), sequence (Q9P296 whole entry): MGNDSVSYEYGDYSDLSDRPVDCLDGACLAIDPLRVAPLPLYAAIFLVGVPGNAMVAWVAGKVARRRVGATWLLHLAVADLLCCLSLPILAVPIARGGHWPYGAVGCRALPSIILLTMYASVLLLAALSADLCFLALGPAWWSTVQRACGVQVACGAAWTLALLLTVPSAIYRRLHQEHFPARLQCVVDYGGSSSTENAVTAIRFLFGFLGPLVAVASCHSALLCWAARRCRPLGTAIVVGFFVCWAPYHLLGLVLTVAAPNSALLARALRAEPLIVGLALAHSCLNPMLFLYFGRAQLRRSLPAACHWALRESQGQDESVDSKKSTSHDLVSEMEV
recombinant His6-tagged C3a, P01024 672-748 (ligand; other documents disagree on this pair), sequence (P01024 672-748 limits assumed): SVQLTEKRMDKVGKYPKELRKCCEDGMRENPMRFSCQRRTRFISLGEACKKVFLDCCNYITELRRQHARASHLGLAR
recombinant C3a des-Arg^77, P01024 672-747 (ligand; other documents disagree on this pair), sequence (P01024 672-747 limits assumed): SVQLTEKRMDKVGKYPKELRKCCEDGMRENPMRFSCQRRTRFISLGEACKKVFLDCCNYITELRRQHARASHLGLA

What is called EC50 is the concentration needed to bring the measured effect to its halfway point. A low value points to a more potent agent. With “plasma ASP (C3a des-Arg^77), purified from human plasma, P01024 672-747 (ligand; FLUOS (fluorescein) label in the flow cytometry assays, ^125I label in one assay; labelled residues not stated; other documents disagree on this pair)”, the EC50 with human C5L2 (human) [1] was 3 nM.
As usually defined, the IC50 is the concentration that gives 50% inhibition. Read a low IC50 as greater potency. Turning to “recombinant C3a des-Arg^77, P01024 672-747 (ligand; other documents disagree on this pair)”, in the assay with human C5L2 (human) [2], the IC50 is 526 nM and the pD2 is 6.24 -log IC50. In the assay with human C5L2 (human) [3], the IC50 was 180000 nM and the pD2 was 4.73 -log IC50.
Consider “recombinant His6-tagged C3a, P01024 672-748 (ligand; other documents disagree on this pair)”, for which, in the assay with human C5L2 (human) [2], the IC50 stood at 167 nM and the pD2 was 6.78 -log IC50. In the assay with human C5L2 (human) [3], the IC50 was 230000 nM and the pD2 is 4.64 -log IC50.
